Reference: the supplement of paper PMC11246515
± gives the standard deviation of the averaged measurements.

Experiment: total protein half-life in vivo (active degradation + dilution); higher = more stable protein
[1] = E. coli NCM3722 delta-clpP delta-lon delta-hslV, growth: N-lim chemostat, doubling time 6 h
[2] = E. coli NCM3722 delta-clpP, growth: N-lim chemostat, doubling time 6 h
[3] = E. coli NCM3722 delta-hslV, growth: N-lim chemostat, doubling time 6 h
[4] = E. coli NCM3722 delta-lon, growth: N-lim chemostat, doubling time 6 h
[5] = E. coli NCM3722 delta-smpB, growth: N-lim chemostat, doubling time 6 h
[6] = wild type E. coli NCM3722, growth: C-lim chemostat, doubling time 3 h
[7] = wild type E. coli NCM3722, growth: C-lim chemostat, doubling time 6 h
[8] = wild type E. coli NCM3722, growth: C-lim chemostat, doubling time 12 h
[9] = wild type E. coli NCM3722, growth: N-lim chemostat, doubling time 6 h
[10] = wild type E. coli NCM3722, growth: N-lim chemostat, doubling time 12 h
[11] = wild type E. coli NCM3722, growth: P-lim chemostat, doubling time 6 h
[12] = wild type E. coli NCM3722, growth: P-lim chemostat, doubling time 12 h

Sequence	total protein half-life in vivo [1]	total protein half-life in vivo [2]	total protein half-life in vivo [3]	total protein half-life in vivo [4]	total protein half-life in vivo [5]	total protein half-life in vivo [6]	total protein half-life in vivo [7]	total protein half-life in vivo [8]	total protein half-life in vivo [9]	total protein half-life in vivo [10]	total protein half-life in vivo [11]	total protein half-life in vivo [12]
MNIQALLSEKVRQAMIAAGAPADCEPQVRQSAKVQFGDYQANGMMAVAKKLGMAPRQLAEQVLTHLDLNGIASKVEIAGPGFINIFLDPAFLAEHVQQALASDRLGVATPEKQTIVVDYSAPNVAKEMHVGHLRSTIIGDAAVRTLEFLGHKVIRANHVGDWGTQFGMLIAWLEKQQQENAGEMELADLEGFYRDAKKHYDEDEEFAERARNYVVKLQSGDEYFREMWRKLVDITMTQNQITYDRLNVTLTRDDVMGESLYNPMLPGIVADLKAKGLAVESEGATVVFLDEFKNKEGEPMGVIIQKKDGGYLYTTTDIACAKYRYETLHADRVLYYIDSRQHQHLMQAWAIVRKAGYVPESVPLEHHMFGMMLGKDGKPFKTRAGGTVKLADLLDEALERARRLVAEKNPDMPADELEKLANAVGIGAVKYADLSKNRTTDYIFDWDNMLAFEGNTAPYMQYAYTRVLSVFRKAEIDEEQLAAAPVIIREDREAQLAARLLQFEETLTVVAREGTPHVMCAYLYDLAGLFSGFYEHCPILSAENEEVRNSRLKLAQLTAKTLKLGLDTLGIETVERM	5.58 ± 1.2 h	4.719 ± 0.0071 h	4.73 ± 0.089 h	5.12 ± 0.092 h	4.66 ± 0.21 h	3.13 ± 0.036 h	5.89 ± 0.47 h	10.2 ± 0.2 h	4.48 ± 0.06 h	7.82 ± 0.086 h	6.03 ± 0.33 h	12 ± 0.36 h
MSRVTAIISALIICIIVSLSWAVNHYRDNAIAYKVQRDKNARELKLANAAITDMQMRQRDVAALDAKYTKELADAKAENDALRDDVAAGRRRLHIKAVCQSVREATTASGVDNAASPRLADTAERDYFTLRERLITMQKQLEGTQKYINEQCR								3.49 h				6.44 h
MTEQATTTDELAFTRPYGEQEKQILTAEAVEFLTELVTHFTPQRNKLLAARIQQQQDIDNGTLPDFISETASIRDADWKIRGIPADLEDRRVEITGPVERKMVINALNANVKVFMADFEDSLAPDWNKVIDGQINLRDAVNGTISYTNEAGKIYQLKPNPAVLICRVRGLHLPEKHVTWRGEAIPGSLFDFALYFFHNYQALLAKGSGPYFYLPKTQSWQEAAWWSEVFSYAEDRFNLPRGTIKATLLIETLPAVFQMDEILHALRDHIVGLNCGRWDYIFSYIKTLKNYPDRVLPDRQAVTMDKPFLNAYSRLLIKTCHKRGAFAMGGMAAFIPSKDEEHNNQVLNKVKADKSLEANNGHDGTWIAHPGLADTAMAVFNDILGSRKNQLEVMREQDAPITADQLLAPCDGERTEEGMRANIRVAVQYIEAWISGNGCVPIYGLMEDAATAEISRTSIWQWIHHQKTLSNGKPVTKALFRQMLGEEMKVIASELGEERFSQGRFDDAARLMEQITTSDELIDFLTLPGYRLLA	5.7 ± 1.2 h	4.82 ± 0.056 h	1.75 ± 0.022 h	2.2 ± 0.35 h	1.76 ± 0.22 h	2.25 ± 0.18 h	3.17 ± 0.25 h	4.18 ± 0.32 h	2.5 ± 1 h	2.59 ± 0.19 h	2.73 ± 0.2 h	5.08 ± 0.14 h
MPQHDQLHRYLFENFAVRGELVTVSETLQQILENHDYPQPVKNVLAELLVATSLLTATLKFDGDITVQLQGDGPMNLAVINGNNNQQMRGVARVQGEIPENADLKTLVGNGYVVITITPSEGERYQGVVGLEGDTLAACLEDYFMRSEQLPTRLFIRTGDVDGKPAAGGMLLQVMPAQNAQQDDFDHLATLTETIKTEELLTLPANEVLWRLYHEEEVTVYDPQDVEFKCTCSRERCADALKTLPDEEVDSILAEDGEIDMHCDYCGNHYLFNAMDIAEIRNNASPADPQVH [P0A6Y5]	4.77 ± 0.4 h	4.06 ± 0.058 h	4.35 ± 0.87 h	4.6 ± 0.6 h	3.55 ± 0.12 h	1.924 ± 0.015 h	3.85 ± 0.11 h	7.32 ± 0.54 h	4.02 ± 0.13 h	6.02 ± 0.22 h	4.51 ± 0.073 h	9.18 ± 2 h
MNITATVLLAFGMSMDAFAASIGKGATLHKPKFSEALRTGLIFGAVETLTPLIGWGMGMLASRFVLEWNHWIAFVLLIFLGGRMIIEGFRGADDEDEEPRRRHGFWLLVTTAIATSLDAMAVGVGLAFLQVNIIATALAIGCATLIMSTLGMMVGRFIGSIIGKKAEILGGLVLIGIGVQILWTHFHG			5.5 h									8.23 h
MATLLQLHFAFNGPFGDAMAEQLKPLAESINQEPGFLWKVWTESEKNHEAGGIYLFTDEKSALAYLEKHTARLKNLGVEEVVAKVFDVNEPLSQINQAKLA [P0ACX3]	5.41 ± 1.1 h	3.68 ± 0.39 h	3.94 ± 0.085 h	5.96 ± 0.17 h	4.07 ± 0.095 h	3.22 ± 0.24 h	4.809 ± 0.035 h	8.79 ± 2.3 h	3.27 ± 0.054 h	5.75 ± 0.85 h	4.79 ± 0.49 h	10.1 ± 1.1 h
MQERIKACFTESIQTQIAAAEALPDAISRAAMTLVQSLLNGNKILCCGNGTSAANAQHFAASMINRFETERPSLPAIALNTDNVVLTAIANDRLHDEVYAKQVRALGHAGDVLLAISTRGNSRDIVKAVEAAVTRDMTIVALTGYDGGELAGLLGPQDVEIRIPSHRSARIQEMHMLTVNCLCDLIDNTLFPHQDD	5.68 ± 1.7 h	6.95 ± 0.57 h	4.6 ± 0.094 h	5.12 ± 0.18 h	5.68 ± 1.4 h	3.087 ± 0.0052 h	5.56 ± 0.26 h	11.1 ± 0.025 h	4.54 h	7.55 ± 1 h	5.81 ± 0.52 h	13 ± 3.2 h
MSPIEKSSKLENVCYDIRGPVLKEAKRLEEEGNKVLKLNIGNPAPFGFDAPDEILVDVIRNLPTAQGYCDSKGLYSARKAIMQHYQARGMRDVTVEDIYIGNGVSELIVQAMQALLNSGDEMLVPAPDYPLWTAAVSLSSGKAVHYLCDESSDWFPDLDDIRAKITPRTRGIVIINPNNPTGAVYSKELLMEIVEIARQHNLIIFADEIYDKILYDDAEHHSIAPLAPDLLTITFNGLSKTYRVAGFRQGWMVLNGPKKHAKGYIEGLEMLASMRLCANVPAQHAIQTALGGYQSISEFITPGGRLYEQRNRAWELINDIPGVSCVKPRGALYMFPKIDAKRFNIHDDQKMVLDFLLQEKVLLVQGTAFNWPWPDHFRIVTLPRVDDIELSLSKFARFLSGYHQL [P0A959]	4.25 ± 0.35 h	3.41 ± 0.16 h	3.89 ± 0.23 h	4.86 ± 1.1 h	3.88 ± 0.19 h	3.14 ± 0.28 h	5.63 ± 0.23 h	9.16 ± 0.84 h	3.76 ± 0.29 h	7.13 ± 0.82 h	6.06 ± 0.87 h	11.78 ± 0.1 h
